Test results published in the supplement of paper PMC12764529.
± gives the half width of the 95% confidence interval.

Key:
[1] = folding stability dG unfold from trypsin proteolysis; higher = more stable
How it was run: (§1)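 Digests were run with trypsin and chymotrypsin at 11 concentrations in threefold dilutions, plus a no-protease condition, on designed mini-proteins in a PA-tagged cDNA display construct. The mini-proteins were under 80 residues, had no cysteine, and were kept only when AlphaFold2 dimer inter-PAE was above 15. After sequencing, Bayesian fitting of the counts gave K50, from which unfolding free energy was derived against a sequence-predicted unfolded-state K50 and a shared folded-state K50, per protease or combined.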

[2] = folding stability dG unfold from chymotrypsin proteolysis; higher = more stable
How it was run: as §1

[3] = folding stability dG unfold (combined trypsin and chymotrypsin); higher = more stable
How it was run: as §1

Row | Sequence | folding stability dG unfold [1] | folding stability dG unfold [2] | folding stability dG unfold [3]
1 | SAGGSAGGSKTITVRVKITLPNGETIEVEAEITVRPDGSITITLPDGSTITLPPGAKVEIEPVSAGGSAGGS [r20_227_TrROS_Hall] | 2.99 ± 0.12 kcal/mol | 2.51 ± 0.17 kcal/mol | 2.85 ± 0.26 kcal/mol
2 | SAGGSAGGSKTIVITIEPNVKTPEQLLELLKKIRELSKPGEKIVIIASPEVLEALKKAGLIEESAGGSAGGS [r12_992_TrROS_Hall] | 3.2 ± 0.16 kcal/mol | 3.7 ± 0.086 kcal/mol | 3.49 ± 0.097 kcal/mol
3 | SAGGSAGGSKTIVLPKNMSIEQAREEILAKARELLPPGEKLKVTIEVVETPEGTYLKITIEKESAGGSAGGS [r12_1051_TrROS_Hall] | 2.49 ± 0.06 kcal/mol | 3.51 ± 0.086 kcal/mol | 3.22 ± 0.058 kcal/mol
4 | SAGGSAGGSKTKTIEIEVDGKKVRITVNEDGSVTIEVYYPGKPVKTIEIPGMSIEEILKALLESAGGSAGGS [r20_8_TrROS_Hall] | 3.08 ± 0.071 kcal/mol | 2.27 ± 0.071 kcal/mol | 2.73 ± 0.098 kcal/mol
5 | SAGGSAGGSKTPVFYIPPSLKDPEKAIELLEEIRKKIPPGTKIAVIAPGGGIPELKKAGLITASAGGSAGGS [r12_992_TrMRF] | 0.344 ± 0.048 kcal/mol | 0.518 ± 0.03 kcal/mol | 0.472 ± 0.11 kcal/mol
6 | SAGGSAGGSKTVEITITRKDGKKLKIEFYPDGYIKIYDSNGKLVKTIKVDPNASIEEILKALKSAGGSAGGS [r12_990_TrROS_Hall] | 3.31 ± 0.12 kcal/mol | 3.38 ± 0.038 kcal/mol | 3.39 ± 0.083 kcal/mol
7 | SAGGSAGGSKTVVITLPENEELGLEKLEELIEKVGPDAKIIISRWDPETGKVDYLVIETGEGKSAGGSAGGS [r12_913_TrMRF] | 1.02 ± 0.041 kcal/mol | 1.92 ± 0.21 kcal/mol | 1.69 ± 0.14 kcal/mol
8 | SAGGSAGGSKVEVKEFEFKANGSKALIEKLEDGSVKIIVLGEEPKEYEISPEEPIVILPGFEVSAGGSAGGS [r12_1003_TrMRF] | -0.341 ± 0.068 kcal/mol | -0.172 ± 0.1 kcal/mol | -0.172 ± 0.09 kcal/mol
9 | SAGGSAGGSKVFTVEELENMTPEEIRALIKKSKKPVIIVAKSEEEKKRAAELLKELGVEVKVLSAGGSAGGS [r12_97_TrROS_Hall] | 3.73 ± 0.12 kcal/mol | 3.6 ± 0.057 kcal/mol | 3.7 ± 0.11 kcal/mol
10 | SAGGSAGGSKVKLTFTIPPGTTPEEAIAKAEELAKKLNIPIVKIDSIEYDPETGTVRIELELDSAGGSAGGS [r12_131_TrMRF] | 4.05 ± 0.15 kcal/mol | 4.31 ± 0.049 kcal/mol | 4.31 ± 0.068 kcal/mol
11 | SAGGSAGGSLEVKVLGIVGDKPVEVTLPAGLGELTLEEIRAAFPPGEWRLVLRDENGNETPLTSAGGSAGGS [r12_540_TrMRF] | 0.663 ± 0.089 kcal/mol | -0.00936 ± 0.18 kcal/mol | 0.446 ± 0.16 kcal/mol
12 | SAGGSAGGSLKPFPIEDITVQPRRNPDGNRYYQVSIRIKGPGRPINIPFPMDNPKKFLEDIIKSAGGSAGGS [r20_238_TrROS] | 0.519 ± 0.081 kcal/mol | 0.143 ± 0.12 kcal/mol | 0.285 ± 0.17 kcal/mol
13 | SAGGSAGGSLMIPIPPGKPINIKFEIKNDDGHPMRITETYPVKNGYYVIRVENPNGNEQIIPFSAGGSAGGS [r12_31_TrROS] | -0.247 ± 0.15 kcal/mol | -0.271 ± 0.2 kcal/mol | -0.185 ± 0.14 kcal/mol
14 | SAGGSAGGSMADITITVTDPATGATRTFPHSVSLEEILAEHPGPVTVTIETPTSTTTLQVPRESAGGSAGGS [r12_1056_JUSTAS] | 0.884 ± 0.03 kcal/mol | 0.0731 ± 0.084 kcal/mol | 0.542 ± 0.056 kcal/mol
15 | SAGGSAGGSMDLKDIKILEAYDPGGPVVVTFLNEGKPYTVTIPPENAQILLDLLKEGNIEIKPSAGGSAGGS [r12_604_TrMRF] | 0.773 ± 0.032 kcal/mol | 1.54 ± 0.047 kcal/mol | 1.25 ± 0.054 kcal/mol
16 | SAGGSAGGSMDLKNAKIISIEETENEIKITIEVDGKLYTITISKEEAEKLKKLLEDLNIEIIPSAGGSAGGS [r12_604_TrROS_Hall] | 4.14 ± 0.23 kcal/mol | 4.3 ± 0.079 kcal/mol | 4.27 ± 0.14 kcal/mol
17 | SAGGSAGGSMEEIIEEIKKKVPKDKYAEIEIEVPFPDGSKKKFKIKFYPETNEFEVEELEEIPSAGGSAGGS [r12_305_TrMRF] | 3.12 ± 0.26 kcal/mol | 4.12 ± 0.23 kcal/mol | 3.88 ± 0.24 kcal/mol
